# Assay results reported in the supplement of paper PMC12042874.
# ± gives the uncertainty stated by the source.
# Assay: amyloid nucleation score (Sup35N fusion, yeast selection) (log enrichment); library NNK3; higher = more nucleation; inactive = no reads after selection
# How it was run: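 Peptides of 20 random codons, each fused to Sup35N, were expressed in psi-negative yeast. Cells were induced with 100 μM copper sulfate for 24 hours and grown 7 days at 30°C on medium lacking adenine and uracil, and plasmid inserts before and after selection were Illumina-sequenced. Nucleation scores are DiMSum log enrichments of output over input reads, centred on the mode score of non-aggregating sequences, and sequences under 100 input reads were excluded.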
row,Substance,amyloid nucleation score
1,QICHRGEGFWPINSSIRKVV,inactive
2,QINSSLDMMRHTFCSEGYAV,inactive
3,QINWTGHLSMSFICFLNSRV,inactive
4,QIRAIMYVFGISVSAVLGAK,-0.19 ± 0.49
5,QKNFLGNF,inactive
6,QLDHGH,inactive
7,QLHNYARMKAQLLAVQV,inactive
8,QLIELGRVVTCV,inactive
9,QLLQVWVNMFKTTAISWIVF,inactive
10,QLRICTR,-0.358 ± 1.1
11,QMRVQMSCCFLGTCFSGRHW,3.29 ± 0.056
12,QNCFHVY,inactive
13,QNFPSTSHFNIYC,1.72 ± 0.094
14,QNFRFYLTCVSGSGHYRSYT,1.37 ± 0.093
15,QNFRIYTVSLLNNRYDELIS,inactive
16,QNGDKHYG,inactive
17,QNILLNVIVTRFGSLQWRSE,1.83 ± 0.056
18,QNMCAARPS,inactive
19,QPDFLSWVDACVNKVVYWVK,-0.421 ± 0.98
20,QQLRNWFHLDPTLARKPKFL,inactive
21,QQPTYKYDDDKNFDSYWLAN,inactive
22,QRELSNMVVISLVQAMLWFR,inactive

row,Substance,amyloid nucleation score
1,QRFFRCIRSRSWTFTSGVIV,inactive
2,QRIEYA,inactive
3,QRRAL,inactive
4,QRVLY,0.864 ± 0.15
5,QSFLDTSPHLDHVVNNSIKH,inactive
6,QSLGVTRFWGLSLLLQNFLP,inactive
7,QSNEASCSGCLISKVLKNDN,inactive
8,QTEFSIGPYIPTEATSRTCS,-0.451 ± 1
9,QTRVHLFAREPPCFTEFNER,inactive
10,QVCFQSWDASRSRYRHRLKR,0.625 ± 0.21
11,QVDHNWF,inactive
12,QVDISNLDCQSCRDKRVGLG,inactive
13,QVILHHMADKKAFISTSSSS,1.52 ± 0.074
14,QWKPWDNTAVGMLPAWIWVD,inactive
15,QWMQRTW,inactive
16,QWRIRSWHMYDSSLARGLD,inactive
17,QWWITTYFGLIFLYVFYSID,inactive
18,QYEWLNYSNLVVYSIKYPEN,inactive
19,QYFFNRKL,inactive
20,QYGIKGRRVKCWLCWHGDVE,inactive
21,QYLSRCLTWSYVTVKSLRSN,inactive
22,QYSMVVVV,inactive

row,Substance,amyloid nucleation score
1,QYSYSPGCRYLKVMLSNNSE,inactive
2,QYWNFFRFVRGDD,0.601 ± 0.14
3,RACCLFQGDWQERLDSISFA,inactive
4,RAGYVWTAVLRPHSNVAWFV,inactive
5,RAITSVSYVWTGRCL,0.803 ± 0.14
6,RALVFIIQVVFRFPCTAGIL,inactive
7,RAPRVVIGCSMYMGMFSELE,0.772 ± 0.14
8,RASLEYVGKCWWDGPYIEGV,inactive
9,RASTISLGKLVQLYLYSRRL,0.468 ± 0.3
10,RATKEGKRLDML,-0.725 ± 1.9
11,RAVHR,inactive
12,RAWNWWGFVTFPERLMCSHT,inactive
13,RCDCEFYTLKWQCEVYYRGR,inactive
14,RCLPMG,inactive
15,RCNHSCFGSIMGCVVLCPGE,1.33 ± 0.13
16,RCTVNRRQSRSAHGMGPSSS,inactive
17,RCVIMTPLAIREHDNDASCQ,inactive
18,RCVQCEAYFCLFDKPDVDDT,3.05 ± 0.053
19,RCYVRFSRSRVVHIMLVYMP,inactive
20,RDHMSS,inactive
21,RDIVVNRLVRACSLGFLCLG,-0.792 ± 1.4
22,RDNWSVNLDTKHDLSIAGKL,inactive
